The text below walks through data of PMC6786648.

The target of the assay is EXP1 with G to L point mutations of the first glycine residues of the two GXXG motifs of the TM domain, Ty-tagged (P. falciparum) (UniProt Q8IIF0). The experiment in a line: cross-linking; in vivo: parasite cultures in PBS with 1% formaldehyde (PFA), 37°C, 30 minutes, quenched with 30 mM Tris-HCl pH 8.0; extracts of treated and untreated cells immunoblotted with α-Ty. A general note: In western blotting, separated proteins are transferred to a membrane and probed.

As for “EXP1 with G to L point mutations of the first glycine residues of the two GXXG motifs of the TM domain, Ty-tagged (from UniProt Q8IIF0 1-162) (natural protein)”, the stoichiometry N (in general, the number of molecules, sites or subunits per partner or assembly) amounted to 2.
